{"source": "patent US20240040982", "about": "“CEREAL GRAIN WITH THICKENED ALEURONE” (Commonwealth Scientific and Industrial Research Organisation, published 2024)", "molecular_target": "T1, TA1 (OsmtSSB-1a) (Oryza sativa)", "T1 chain": "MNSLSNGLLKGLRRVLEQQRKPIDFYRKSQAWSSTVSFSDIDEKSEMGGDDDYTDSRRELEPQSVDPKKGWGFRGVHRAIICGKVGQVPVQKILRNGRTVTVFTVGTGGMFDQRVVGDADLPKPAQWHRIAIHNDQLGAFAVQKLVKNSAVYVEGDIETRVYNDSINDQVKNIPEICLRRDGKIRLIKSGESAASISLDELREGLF", "experiment": "EMSA; 2 ug protein, 750 amol probe, room temperature 10 min; competed by 2x, 20x, 200x unlabelled ssDNA", "conditions": "tags: N-terminal 6xHis (pET-30a), expressed in E. coli; label: 3' biotin (biotinylated CTP)", "experimental": "The affinity of purified 6×His-TA1 protein for ssDNA was determined using an EMSA (Thermo Cat. No. 20148X) as described in general terms by Reddy et al. (2001). A 45-nucleotide single-stranded oligonucleotide (SEQ ID NO:60) was labelled at the 3′ end with biotinylated CTP (Thermo Cat. No. 89818) according to the manufacturer's instructions. Recombinant 6×His-TA1 protein (2 μg) was added to 750 attomoles of biotin-labelled oligonucleotide and the mixture was incubated at room temperature for 10 min. A control sample lacked the 6×His-TA1 protein was applied to lane 1 in FIG. 11. Separate reactions were carried out in the presence of a 60-bp double-stranded DNA (dsDNA; control fragment from Thermo EMSA kit) to determine if the mobility shift was specific for ssDNA. Binding reaction products were separated by electrophoresis in a 5% native polyacrylamide gel in 0.5×TBE (Bio-Rad) and transferred to a nylon membrane (Bio-Rad). DNA bands were visualized using streptavidin-conjugated horseradish peroxidase (Thermo).", "data": [{"binder": "ACTCCCTCTCCCTTGCGGATTCGAATGGTAGTACATTCTCTTCGA (ssDNA)", "note": "[45-nt EMSA ssDNA probe]", "values": [{"measurement": "binding result", "value": "binds"}]}]}
